Test results: PMC3299833 (Molecular Cell, 2012)
Read-outs that look alike come from different tables or passages of the source.

How the values were obtained:
SEC [1] = target: the molecule itself; assay: SEC
SEC [2] = target: the molecule itself; assay: SEC; remark: listed apart in the source

Protein | stoichiometry N (SEC [1]) | stoichiometry N (SEC [2])
Recombinant PKM2 mutant R399E (enzyme) not shown | 2 | –
HA-R399E (HA-tagged PKM2 mutant R399E expressed in SW480 cells) (enzyme) not shown | – | 2
